Assay results from patent US20060134122A1, “Peptides of syndecan-1 for inhibition of cancer” (priority 2004, published 2006).
Residue numbers refer to the chain shown, from its start.

How the values were obtained:
[1] = test system: human microvascular endothelial cells (HMECs); test: Apoptosis of serum-starved HMEC; assay type: cell-based; settings: for cell death / protection from apoptosis, agent alone: VEGF 100 ng/ml, FGF 100 ng/ml, hScd-1ED 30 ug/ml
Procedure: FIGS. 17A-B—Competition with soluble Sdc-1 ectodomain causes enhanced apoptosis of human microvascular endothelial cells (HMECs) in the presence of FGF. (FIG. 17A) HMEC-1 cells were plated overnight on gelatin, then starved for 24 hr to induce the intrinsic pathway of apoptosis. Apoptotic cells were easily observed by DIC microscopy. Examples of apoptotic cells are denoted by black arrows, living cells by red arrows. Cells were treated with 100 ng/ml VEGF, 100 ng/ml FGF, FGF+30 ug/ml hScd-1ED or hScd-1ED alone. […] (FIG. 17B) Quantification of % protection from apoptosis by each treatment. […] VEGF has no effect on this pathway, as it affects the extrinsic pathway of apoptosis which is not induced by serum starvation.
Finally, the inventors performed used human microvascular endothelial cells (HMECs), which also express Sdc-1, as well as the αvβ3 and αvβ5 integrins, to test the theory that endothelial cells undergoing angiogenesis in response to fibroblast growth factor, a common angiogenic agent, will enter apoptosis and die unless the FGF signal is accompanied by a coordinate signal from the αvβ3 integrin. The inventors hypothesis was that recombinant ectodomain of Sdc-1 would block the signal from the αvβ3 integrin and induce apoptosis in the presence of FGF. HMEC cells grown in low serum conditions spontaneously enter apoptosis. […] In fact, treatment with FGF together with the soluble ectodomain protein induced apoptosis beyond that of the low serum condition alone (FIGS. 17A-B).

B82L fibroblasts = test: B82L cell attachment and spreading; assay type: cell-based, mouse
Excerpt: FIGS. 11A-F—Downregulation of mouse Sdc-1 expression by siRNA blocks αvβ5-dependent cell attachment and spreading on VN. FACS analysis for (FIG. 11A) mouse syndecan-1 (mAb 281.2), (FIG. 11B) αv integrin subunit (mAb H9.2B8), (FIG. 11C) mouse Syndecan-4 (mAb KY8.2), (FIG. 11D) human syndecan-1 (mAb B-B4) and (FIG. 11E) FcR^ecto-hS1 chimera (FITC-conjugated hIgG) expression against isotype IgG controls (red-fill) in vector^NEO (FIGS. 11A-C), human syndecan-1 (FIG. 11D) and FcR^ecto-hS1 (FIG. 11E) expressing B82L cells 48 h after transfection with either 600 nM control (Control) or mouse syndecan-1-specific siRNA (siRNA). (FIG. 11F) B82L^NEO empty vector-transfected control cells and B82L cells expressing human syndecan-1 or the FcR^ecto-hS1 chimera were transfected with control or mouse syndecan-1-specific siRNA and seeded on wells coated with either 5 μg/mL VN alone or a mixed substratum of VN plus 60 μg/mL of antibody directed against mouse syndecan-1 (281.2), human syndecan-1 (B-B4) or the FcR^ecto-hS1 chimera (hIgG). Cells were incubated at 37° C. for 2 h, fixed, and stained with rhodamine-conjugated phalloidin.
FIGS. 12A-B—B82L cell spreading on VN is blocked by recombinant Scd-1ED. (FIG. 12A) B82L fibroblasts were plated on 5 μg/mL VN in the absence of other treatment, or in the presence of 30 μM GST, 1-30 μM GST-mS1ED or 30 μM GST-mS4ED (inset), then fixed and stained with rhodamine-phalloidin for visualization. (FIG. 12B) Quantification of cell adhesion in triplicate samples (±S.E.) plated either with no additions, or concentrations of GST-mS1ED ranging from 0-30 μM. […]
The failure of NEO cells to engage the mixed substratum is indicative of the efficient blockade of mouse Sdc-1 expression by the siRNA. It is unlikely that the mouse Sdc-1-siRNA treatment has any non-specific cellular effects since spreading on VN is specifically rescued by the expression of full-length human Sdc-1 (hS1, FIG. 11F). Spreading of the B82L-hS1 cells is indistinguishable from parental cells. However, spreading on VN is not recovered in cells expressing the FcR^ecto-hS1 chimera—a construct in which the syndecan's ectodomain is replaced by the ectodomain of the human Fcγ receptor Ia (FcR^ecto-hS1)—regardless of whether the cells are plated on VN alone, or VN supplemented with 60 μg/mL of hIgG to engage the FcR^ecto-hS1 construct.
Recombinant Sdc-1 ectodomain competitively blocks αvβ5 integin activity. To test whether soluble Sdc-1 ectodomain will compete with the syndecan activation of the αvβ5 integrin, B82L cells were plated on 5 μg/mL VN in the presence of a recombinant GST fusion protein containing either the ectodomain of mouse Sdc-1 (GST-mS1ED) or human Sdc-1 (GST-hS1ED; data not shown).

[2] = test system: mouse aortic endothelial cells; test: Mouse aortic endothelial cell spreading on VN; assay type: cell-based
Excerpt: Secondly, they targeted Sdc-1 expression cells using siRNA.

With VEGF [reference compound] the “cell death / protection from apoptosis, agent alone” value ([1]; starved 24 hr) was “no effect”.

B1: GST-hS1ED: recombinant GST fusion protein containing the ectodomain of human Sdc-1 (protein)
chain: QIVATNLPPEDQDGSGDDSDNFSGSGAGALQDITLSQQTPSTWKDTQLLTAIPTSPEPTGLEATAASTSTLPAGEGPKEGEAVVLPEVEPGLTAREQEATPRPRETTQLPTTHQASTTTATTAQEPATSHPHRDMQPGHHETSTPAGPSQADLHTPHTEDGGPSATERAAEDGASSQLPAAEGSGEQDFTFETSGENTAVVAVEPDRRNQSPVDQGATGASQGLLDRKEVLG
modifications: left off: a dimerising Fc or GST
In the case of B1, the “cell attachment and spreading on VN” value (B82L fibroblasts; 5 μg/mL VN, S1ED 1-30 μM, GST and GST-mS4ED 30 μM) is reported as “increasing blockade” and the “lowest concentration tested at which competition occurs” value (B82L fibroblasts; cells plated on 5 μg/mL VN) is reported as 1 µM.

B2: hScd-1ED: soluble human Sdc-1 ectodomain used as competitor on HMEC cells (protein, UniProt P18827 23-254, looked up)
extracellular domain: B1 chain with Q114L
modifications: extracellular domain
B2 was tested, and the “cell death in 15% serum” value ([1]; control cells in 15% serum, not shown) was “no effect”, the “apoptosis in the presence of FGF” value ([1]; starved 24 hr, 100 ng/ml FGF + 30 ug/ml hScd-1ED) was “dramatically increases apoptosis” and the “cell death / protection from apoptosis, agent alone” value ([1]; starved 24 hr) was “protective effect”.

B3: Sdc-1 ectodomain: recombinant Sdc-1 ectodomain competitor; species and fusion not stated at this place (protein)
chain: B1 chain
B3 was tested, and the “competitor concentration at which spreading on VN is blocked” value [2] was 1 µM.
